target: RLC-depleted porcine cardiac β-myosin (porcine) (UniProt P79293); assay: co-sedimentation

Binder | percent reconstitution (densitometry)
wild-type human ventricular regulatory light chain, phosphorylated by MLCK (natural protein, phosphoserine at 15 (95.7 ± 3.6% phosphorylated)) MAPKKAKKRAGGANSNVFSMFEQTQIQEFKEAFTIMDQNRDGFIDKNDLRDTFAALGRVNVKNEEIDEMIKEAPGPINFTVFLTMFGEKLKGADPEETILNAFKVFDPEGKGVLKADYVREMLTTQAERFSKEEVDQMFAAFPPDVTGNLDYKNLVHIITHGEEKD | 109%
N47K human ventricular regulatory light chain, phosphorylated by MLCK (natural protein, phosphoserine at 15 (98.4 ± 1.6% phosphorylated)) MAPKKAKKRAGGANSNVFSMFEQTQIQEFKEAFTIMDQNRDGFIDKKDLRDTFAALGRVNVKNEEIDEMIKEAPGPINFTVFLTMFGEKLKGADPEETILNAFKVFDPEGKGVLKADYVREMLTTQAERFSKEEVDQMFAAFPPDVTGNLDYKNLVHIITHGEEKD | 96.2%
R58Q human ventricular regulatory light chain, dephosphorylated (mock phosphorylation reaction) (natural protein) MAPKKAKKRAGGANSNVFSMFEQTQIQEFKEAFTIMDQNRDGFIDKNDLRDTFAALGQVNVKNEEIDEMIKEAPGPINFTVFLTMFGEKLKGADPEETILNAFKVFDPEGKGVLKADYVREMLTTQAERFSKEEVDQMFAAFPPDVTGNLDYKNLVHIITHGEEKD | 97.8%

Second part, the binder after the results:

percent reconstitution (densitometry) | Binder
108% | wild-type human ventricular regulatory light chain, dephosphorylated (mock phosphorylation reaction) (natural protein) MAPKKAKKRAGGANSNVFSMFEQTQIQEFKEAFTIMDQNRDGFIDKNDLRDTFAALGRVNVKNEEIDEMIKEAPGPINFTVFLTMFGEKLKGADPEETILNAFKVFDPEGKGVLKADYVREMLTTQAERFSKEEVDQMFAAFPPDVTGNLDYKNLVHIITHGEEKD
106% | N47K human ventricular regulatory light chain, dephosphorylated (mock phosphorylation reaction) (natural protein) MAPKKAKKRAGGANSNVFSMFEQTQIQEFKEAFTIMDQNRDGFIDKKDLRDTFAALGRVNVKNEEIDEMIKEAPGPINFTVFLTMFGEKLKGADPEETILNAFKVFDPEGKGVLKADYVREMLTTQAERFSKEEVDQMFAAFPPDVTGNLDYKNLVHIITHGEEKD
107% | R58Q human ventricular regulatory light chain, phosphorylated by MLCK (natural protein, phosphoserine at 15 (87.4 ± 0.8% phosphorylated; full phosphorylation never accomplished)) MAPKKAKKRAGGANSNVFSMFEQTQIQEFKEAFTIMDQNRDGFIDKNDLRDTFAALGQVNVKNEEIDEMIKEAPGPINFTVFLTMFGEKLKGADPEETILNAFKVFDPEGKGVLKADYVREMLTTQAERFSKEEVDQMFAAFPPDVTGNLDYKNLVHIITHGEEKD

— paper PMC4790447
